This is an account of results in patent publication US20130209454A1 (CALIFORNIA INSTITUTE OF TECHNOLOGY, published 2013).

What all share (assay): cell-based or functional assay
In assay [1] the target is HIV-1 Env of strain CAP45.2.00.G3 (HIV-1).
The target in assay [2] is HIV-1 Env of strain TRO.11 (HIV-1).
Assay [3] deals with HIV-1 Env of strain QH0692.42 (HIV-1).
Assay [4] deals with HIV-1 Env of strain AC10.0.29 (HIV-1).
Assay [5] addresses HIV-1 Env of strain T257-31 (HIV-1).
Assay [6] has as its target HIV-1 Env of strain ZM214M.PL15 (HIV-1).
In assay [7] the target is HIV-1 Env of strain SC422661.8 (HIV-1).
Assay [8] addresses HIV-1 strain CAP45.2.00.G3 envelope (gp120) (HIV-1).
Assay [9] concerns the target HIV-1 strain TRO.11 envelope (gp120) (HIV-1).
Assay [10] has as its target HIV-1 strain AC10.0.29 envelope (gp120) (HIV-1).
Assay [11] has as its target HIV-1 strain QH0692.42 envelope (gp120) (HIV-1).
The target in assay [12] is HIV-1 strain T257-31 envelope (gp120) (HIV-1).
Assay [13] has as its target HIV-1 strain ZM214M.PL15 envelope (gp120) (HIV-1).
Assay [14] deals with HIV-1 strain SC422661.8 envelope (gp120) (HIV-1).
The target in assay [15] is HIV-1 strain CAP45.2.00.G3 envelope (gp120) (HIV-1). The source holds these as a separate data set.
The target of assay [16] is HIV-1 strain CAP210.2.00.E8 envelope (gp120) (HIV-1).
For assay [17], the target named is HIV-1 strain Du172.17 envelope (gp120) (HIV-1).
Assay [18] deals with HIV-1 strain TRO.11 envelope (gp120) (HIV-1). This is another data set of the same source.
In assay [19] the target is HIV-1 strain AC10.0.29 envelope (gp120) (HIV-1). This is another data set of the same source.
The target in assay [20] is HIV-1 strain SC422661.8 envelope (gp120) (HIV-1). The source holds these as a separate data set.

Read-outs that look alike come from different tables or passages of the source.

B1: NIH45-46 Δ99a-99d IgG (antibody, V domains shown)
VH: QVRLSQSGGQMKKPGESMRLSCRASGYEFLNCPINWIRLAPGRRPEWMGWLKPRGGAVNYARKFQGRVTMTRDVYSDTAFLELRSLTSDDTAVYFCTRGKYCTYNWDFEHWGRGAPVTVSS
VL: EIVLTQSPATLSLSPGETAIISCRTSQSGSLAWYQQRPGQAPRLVIYSGSTRAAGIPDRFSGSRWGADYNLSISNLESGDFGVYYCQQYEFFGQGTKVQVDI
As to B1, the “neutralization IC50” value in [1] was greater than 50 µg/mL; in [2], greater than 50 µg/mL; in assay [3], 3.7 µg/mL; in assay [4] it was 13 µg/mL; in assay [5], 7 µg/mL; in [6], 2.2 µg/mL. In [7], the “neutralization IC50” value is 1.4 µg/mL.

B2: NIH45-46 heavy chain paired with the VRC01 light chain (IgG) (antibody, V domains shown)
VH: QVRLSQSGGQMKKPGESMRLSCRASGYEFLNCPINWIRLAPGRRPEWMGWLKPRGGAVNYARKFQGRVTMTRDVYSDTAFLELRSLTSDDTAVYFCTRGKYCTARDYYNWDFEHWGRGAPVTVSS
VL: EIVLTQSPGTLSLSPGETAIISCRTSQYGSLAWYQQRPGQAPRLVIYSGSTRAAGIPDRFSGSRWGPDYNLTISNLESGDFGVYYCQQYEFFGQGTKVQVDI
Take B2: the “neutralization IC50” value was determined as 2.1 µg/mL in assay [8]; 0.3 µg/mL in [9]; 1 µg/mL in assay [10]; 0.9 µg/mL in assay [11]; 0.6 µg/mL in assay [12]; 0.6 µg/mL in assay [13]. Moreover, the “neutralization IC50” value in assay [14] is 0.2 µg/mL.

B3: 12A12 IgG (antibody, V domains shown)
VH: SQHLVQSGTQVKKPGASVRISCQASGYSFTDYVLHWWRQAPGQGLEWMGWIKPVYGARNYARRFQGRINFDRDIYREIAFMDLSGLRSDDTALYFCARDGSGDDTSWHLDPWGQGTLVIVSA
VL: DIQMTQSPSSLSASVGDRVTITCQAGQGIGSSLQWYQQKPGKAPKLLVHGASNLHRGVPSRFSGSGFHTTFSLTISGLQRDDFATYFCAVLEFFGPGTKVEIKR
As for B3, the “neutralization IC50” value in assay [15] is 0.4 µg/mL; in assay [16], greater than 50 µg/mL; in assay [17], 0.2 µg/mL; in assay [18], 0.3 µg/mL; in [19] it was 0.6 µg/mL; in assay [20], 0.2 µg/mL.

B4: 3BNC60 IgG (antibody, V domains shown)
VH: QVHLSQSGAAVTKPGASVRVSCEASGYKISDHFIHWWRQAPGQGLQWVGWINPKTGQPNNPRQFQGRVSLTRQASWDFDTYSFYMDLKAVRSDDTAIYFCARQRSDFWDFDVWGSGTQVTVSS
VL: DIQMTQSPSSLSARVGDTVTITCQANGYLNWYQQRRGKAPKLLIYDGSKLERGVPARFSGRRWGQEYNLTINNLQPEDVATYFCQVYEFIVPGTRLDLKRTVA
Take B4: the “neutralization IC50” value in [15] worked out at 10 µg/mL; in [16], 4.7 µg/mL; in assay [17] it was 0.05 µg/mL; in assay [18] it was 0.07 µg/mL; in assay [19], 13 µg/mL; in assay [20], 0.1 µg/mL.

B5: 3BNC117 IgG (antibody, V domains shown)
VH: QVQLLQSGAAVTKPGASVRVSCEASGYNIRDYFIHWWRQAPGQGLQWVGWINPKTGQPNNPRQFQGRVSLTRHASWDFDTFSFYMDLKALRSDDTAVYFCARQRSDYWDFDVWGSGTQVTVSS
VL: DIQMTQSPSSLSASVGDTVTITCQANGYLNWYQQRRGKAPKLLIYDGSKLERGVPSRFSGRRWGQEYNLTINNLQPEDIATYFCQVYEFVVPGTRLDLKRTVA
In the case of B5, the “neutralization IC50” value stood at 16 µg/mL in assay [15]; 11 µg/mL in assay [16]; 0.04 µg/mL in [17]; 0.6 µg/mL in assay [18]; 6.5 µg/mL in [19]; 0.07 µg/mL in assay [20].

B6: 3BNC55 IgG (antibody, V domains shown)
VH: QVQLVQSGTAVKRPGASVRVSCQASGYTFTDYFIYWWRQAPGQGLEWLGWINPLTSQPSYPSRFQGRLTLTRDTFDEMLYMDLRGLRSDDTGIYFCARRHSDYCDFDIWGSGTQIIVSS
VL: DIQMTQSPSSLSASVGDKVTITCQTSAGYLNWYQQRRGRAPKLLMYDGSRLVTGVPSRFSGRRWGTQYNLTIGSLQPEDIATYYCQVYEFFGPGTRLDLKS
As for B6, the “neutralization IC50” value in [15] was greater than 50 µg/mL; in assay [16], greater than 50 µg/mL; in [17], 2 µg/mL; in [18], 7.6 µg/mL; in assay [19], greater than 50 µg/mL; in assay [20], 0.3 µg/mL.
